Source: patent US20250296996A1 (BROADWING BIO, published 2025)

B1: ATX-P-449 (antibody, human IgG1, kappa, N297A, V domains shown)
VH: QVQLVESGGGVVQPGRSLRLSCAASGFAFSSYGMHWVRQAPGKGLEWVAVISYYGSNKYYADSVKGRFTISRDNSKNTLYLQMNSLRAEDTAVYHCARGITMDVWGKGTTVTVSS
VL: EIVLTQSPATLSLSPGERATLSCRASQSVSSYLAWYQQKPGQAPRLLIYDASNRATGIPARFSGSGSGTDFTLTISSLEPEDFAVYYCQQRSNWPLTFGGGTKVEIKR
notes: Full chains (VH + hIgG1-Agly-Fc)
B2: ATX-P-428 (antibody, human IgG1, kappa, N297A, V domains shown)
VH: QVQLVQSGAEVKKPGASVKVSCKASGYTFSSYGISWVRQAPGQGLEWMGWISAYNGNTNYAQNLRGRVAMTTDTSTTTAYMELRSLRSDDTAVYYCARVSLVWFGELPRGFDYWGQGTLVTVSS
VL: not shown
notes: as for B1
B3: ATX-P-443 (antibody, human IgG1, kappa, N297A, V domains shown)
VH: QVQLVQSGAEVKKPGASVKVSCKASGYTFTSYGISWVRQAPGQGLEWMGWIIAYNGNTNYAQKLQGRITMTTNTSTNTAYMELRSLRSDDTAVYYCGRDTGFSFDYWGQGTLVTVSS
VL: not shown
notes: as for B1

How the values were obtained:
[1] = target: T1, muANGPTL7-his (R&D Systems) (mouse, UniProt Q8R1Q3 22-337, limits assumed); assay: BLI Octet HTX; IgG on AHC sensor; muANGPTL7-his at 200 nM; 1:1 fit
T1 construct: Bought protein; also called mouse ANGPTL7 protein
T1 sequence (looked up): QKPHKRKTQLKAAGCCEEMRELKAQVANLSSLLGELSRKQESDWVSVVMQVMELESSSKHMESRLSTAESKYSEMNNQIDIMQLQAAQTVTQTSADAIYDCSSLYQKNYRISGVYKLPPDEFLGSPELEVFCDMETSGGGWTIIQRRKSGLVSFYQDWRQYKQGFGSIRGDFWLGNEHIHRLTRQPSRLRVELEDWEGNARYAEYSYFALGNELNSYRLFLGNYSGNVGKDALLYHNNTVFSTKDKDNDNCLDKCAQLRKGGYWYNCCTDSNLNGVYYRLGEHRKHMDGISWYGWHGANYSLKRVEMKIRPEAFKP
Method in brief: (§1)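 Anti-ANGPTL7 antibodies (50 nM) were loaded on AHC biosensors in PBS pH 7.4 with BSA, azide and Tween 20. Sensors were dipped in monovalent mouse ANGPTL7-his (200 nM) for 5 min association and 10 min dissociation. KD came from a 1:1 fit, and responses were taken at the end of association.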

P62 (huANGPTL7-his) [2] = target: T2, P62 (huANGPTL7-his) (human, UniProt O43827 27-346); assay: BLI Octet HTX; IgG on AHC sensor; P62 0.343-250 nM; global 1:1 fit
T2 construct: not shown: C-terminal short linker and His tag
T2 chain: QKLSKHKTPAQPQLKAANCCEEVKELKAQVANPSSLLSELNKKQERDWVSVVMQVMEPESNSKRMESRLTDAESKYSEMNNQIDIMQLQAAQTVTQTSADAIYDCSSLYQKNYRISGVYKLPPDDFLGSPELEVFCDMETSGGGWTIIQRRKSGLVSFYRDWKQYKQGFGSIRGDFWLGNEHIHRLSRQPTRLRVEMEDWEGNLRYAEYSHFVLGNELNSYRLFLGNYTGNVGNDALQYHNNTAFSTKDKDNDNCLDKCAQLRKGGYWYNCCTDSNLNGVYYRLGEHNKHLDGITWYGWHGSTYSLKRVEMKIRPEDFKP
Protocol: (§2) Experiments were also conducted to determine the reactivity and dissociation constants (KD) of anti-ANGPTL7 antibodies with the human ANGPTL7-his protein. Binding experiments were performed on Octet HTX (ForteBio) in 1×PBS, pH 7.4, 0.1 mg/mi BSA, 0.05% Sodium Azide, and 0.02% Tween 20. To measure monovalent binding kinetics, antibodies at a concentration of 50 nM were loaded on pre-hydrated AHC biosensors for 5 min. The loaded sensors were dipped into monovalent P62 (huANGPTL7-his) at a range of concentration from 0.343-250 nM (a serial 3-fold dilution) for 5 min association, followed by 10 min dissociation.

P66 (rabbit ANGPTL7-his) = target: T3, P66 (rabbit ANGPTL7-his) (rabbit, UniProt G1T4P1 27-344); assay: BLI Octet HTX; IgG on AHC sensor; P66 at 200 nM
T3 construct: mature; also called rabbit ANGPTL7 protein
T3 sequence: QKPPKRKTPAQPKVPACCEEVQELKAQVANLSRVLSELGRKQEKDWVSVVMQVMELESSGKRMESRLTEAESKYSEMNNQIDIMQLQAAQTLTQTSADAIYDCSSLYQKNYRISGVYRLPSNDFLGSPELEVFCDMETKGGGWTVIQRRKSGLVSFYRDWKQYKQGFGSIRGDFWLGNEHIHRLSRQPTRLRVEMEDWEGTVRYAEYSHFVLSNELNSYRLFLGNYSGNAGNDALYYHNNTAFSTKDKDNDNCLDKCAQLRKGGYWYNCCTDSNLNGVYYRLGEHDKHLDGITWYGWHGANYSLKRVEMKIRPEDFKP
Protocol: Experiments were also conducted to determine the reactivity and dissociation constants ([…]) of anti-ANGPTL7 antibodies with the rabbit ANGPTL7 protein. Binding experiments were performed on Octet HTX (ForteBio) in Rx PBS, pH 7.4, 0.1 mg/mi BSA, 0.05% Sodium Azide, and 0.02% Tween 20. Antibodies at a concentration of 50 nM were loaded on pre-hydrated AHC biosensors for 5 min. The loaded sensors were dipped into monovalent P66 (rabbit ANGPTL7-his) at a concentration of 200 nM for 5 min of association, followed by 10 min of dissociation. […] Responses (nm) at the end of association were also determined (Table 6).

[3] = target: T4, Pext-01 (huANGTPL7-FLAG multimer) (human, UniProt O43827 27-346); assay: BLI Octet HTX; IgG on AHC sensor; Pext-01 at 100 nM
T4 construct: also called PExt-1; human wild type ANGPTL7 multimer; not shown: FLAG tag
T4 sequence: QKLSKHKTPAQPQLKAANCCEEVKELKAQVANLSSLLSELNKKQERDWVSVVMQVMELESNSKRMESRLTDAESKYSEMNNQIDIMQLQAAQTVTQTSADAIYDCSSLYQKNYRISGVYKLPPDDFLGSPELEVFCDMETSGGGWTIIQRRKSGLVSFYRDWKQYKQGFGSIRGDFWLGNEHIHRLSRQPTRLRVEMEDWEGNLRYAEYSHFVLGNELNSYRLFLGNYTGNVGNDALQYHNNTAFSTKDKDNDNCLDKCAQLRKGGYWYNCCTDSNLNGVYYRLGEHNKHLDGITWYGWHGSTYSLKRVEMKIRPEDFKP
Protocol: Experiments were also conducted to determine the reactivity and dissociation constants (KD) of anti-ANGPTL7 antibodies with the human ANGPTL7 multimer protein. Binding experiments were performed on Octet HTX (ForteBio) in 1×PBS, pH 7.4, 0.1 mg/ml BSA, 0.05% Sodium Azide, and 0.02% Tween 20. Antibodies at a concentration of 50 nM were loaded on pre-hydrated AHC biosensors for 5 mi. The loaded sensors were dipped into Pext-01 (huANGTPL7-FLAG) at a concentration of 100 nM for 5 min of association, followed by 10 min of dissociation. […] Responses (nm) at the end of association were also determined (Table 7).

[4] = target: T1, muANGPTL7-his (R&D Systems); assay: BLI Octet HTX; IgG on AHC sensor; muANGPTL7-his at 200 nM
Method in brief: as §1

P62 (huANGPTL7-his) [5] = target: T2, P62 (huANGPTL7-his); assay: BLI Octet HTX; IgG on AHC sensor; P62 0.343-250 nM
Protocol: as §2

Row | Binder | Kd [1] [nM] | Response [1] [nm] | binding result (P62 (huANGPTL7-his) [2]) | binding result (P66 (rabbit ANGPTL7-his)) | binding result [3] | binding result [4] | binding result (P62 (huANGPTL7-his) [5])
1 | B1 | 0.857 | 0.75 | binds | – | – | – | –
2 | B2 | – | 0.04 | – | no binding (tested: 200 nM) | no binding (tested: 100 nM) | no binding (tested: 200 nM) | no binding (tested: 250 nM)
3 | B3 | – | – | – | no binding (tested: 200 nM) | no binding (tested: 100 nM) | no binding (tested: 200 nM) | no binding (tested: 250 nM)
